Experimental findings from the RNAGym collection of RNA variant scans (doi:10.1073/pnas.2313332121) are described below.

The labels stand for the following.
B1: TPR t1 (parent)
chain: GACCAAUCUGCCCUCAGAGCUCGAGAACAUCUUCGGAUGCAGAGGAGGCAGGCUUCGGUGGCGCGAUAGCGCCAACGUCCUCAACCUCCAAUGCAUCCCACCACAUGAUGAUGCCUGAAGAGCCUUGGUUUUUUG

The series covers variants of B1. In words: polymerase ribozyme fitness, log enrichment relative to wild type (log ratio); higher = more active; in vitro selection for triplet polymerase activity. In short, it runs like this: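 Mutant libraries of each subunit of a heterodimeric triplet polymerase ribozyme were built by PCR and transcribed. Each library went through one round of in vitro selection in triplicate: annealing with biotinylated primer, partner subunit and triplets, frozen incubation at −7 °C, gel excision of extended constructs, streptavidin-bead capture and RT-PCR. Input and output libraries were Illumina-sequenced; only genotypes with ≥10 input reads and ≥1 read per output were kept. Fitness is log2(genotype enrichment/wild-type enrichment), using inverse-variance-weighted replicate averages.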
For the variant A41U A66G U92A, the “polymerase ribozyme fitness (log ratio)” value was -2.28.
G42A U78C: the “polymerase ribozyme fitness (log ratio)” value is -1.87.
As for A41U C72A, the figure is -1.82; as for A41C G58A C72U, -0.757.
As for G42C C101U, the figure is -1.45; as for A41C C56G A74C, -5.29.
As for C40G U59A C72U G110C G117A A119C U129G U133G, the figure is -7.24; as for C40G A50U G63C, -2.25; as for A41U G113A C114U C115A G122U, -5.49.
For G42A U87A C89U, the “polymerase ribozyme fitness (log ratio)” value is -2.26.
As for G42A U106C, the figure is -2.12; as for C40U A84C U112A, 0.737; as for C40U C70A C85U G135U, -4.91.
As for A41U G110A, the figure is -2.6.
In the case of G42A G45A A50G G113U U129A G135A it was -3.94; in that of A41U G45U, -1.99; in that of C40U G61U C97A, -5.61.
A41C G61U C70G C101A A111C: the “polymerase ribozyme fitness (log ratio)” value is -5.73.
In the case of A41G G61A C101U U133G it was -1.01; in that of G42C G45U G48U U131G, -3.09; in that of C40U A83G G128A U129G, -3.53.
In the case of A41C C70U it was -2.04.
For the variant A41C C70G, the “polymerase ribozyme fitness (log ratio)” value was -3.91.
As for C40U G44A G63A, the figure is -1.6; as for C40G G110A, -1.53; as for C40G C64U U81A, -2.3.
As for C40U A68U G69A C88U G93A U133A, the figure is -6.63.
As for G42C C49U G63A G120A G128U, the figure is -5.69; as for A41G G61U C94U, -0.449; as for A41U U87A, -1.14.
Take A41U C49U G69A: the “polymerase ribozyme fitness (log ratio)” value is -6.56.
As for A41U C86G A95U, the figure is -3.96; as for G42C G48U C70A G120U, -5.45.
As for C40G G44A C98U, the figure is -5.49.
Consider A41C A74U U87C, for which the “polymerase ribozyme fitness (log ratio)” value was -0.35.
In the case of C40U C115A it was -0.771.
In the case of G42A C56G C85G G93A G120C it was -3.01; in that of A41U C56A, -1.52.
Turning to A41C C114U, the “polymerase ribozyme fitness (log ratio)” value was -2.16.
A41U C64U C94U U133G: the “polymerase ribozyme fitness (log ratio)” value was -1.82.
As for G42A C70A C89A C124U, the figure is -4.
In the case of C40G C79U C101U G113U it was -4.09.
In the case of G42A C85G C86G U129C it was -4.79.
For the variant A41C U81A U133G, the “polymerase ribozyme fitness (log ratio)” value was -2.53.
In the case of C40G G57U it was -1.36; in that of A41G A83C C98U, -1.73; in that of C40G C56G C124G G127U, -0.222.
Take C40G C102U U116G C124U: the “polymerase ribozyme fitness (log ratio)” value is -4.94.
In the case of A41C A43U C53U U126C it was -2.72.
As for G42A G44U C73A, the figure is -1.69; as for C40U G45U G63A, -2.6; as for A41C C72U A74G A91U A95C G113A, -3.31.
Turning to C40U C94U, the “polymerase ribozyme fitness (log ratio)” value is -1.54.
As for C40G G71A U125A, the figure is -2.35.
In the case of G42A G117U it was -3.37.
In the case of A41C C123A it was -0.408; in that of C40U C80G, -5.42.
Regarding C40G G113U C114U U133G, the “polymerase ribozyme fitness (log ratio)” value is -2.25.
As for G42A C114U, the figure is -2.35; as for C40U G52U C62U, -1.16; as for G42C G63A C88U, -3.63.
As for G42C C80U U92G, the figure is -3.41; as for G42A G44A G47U, -3.4; as for A41U U78C, -1.1.
As to A41G U81A, the “polymerase ribozyme fitness (log ratio)” value was -1.07.
With G42A C53U C64U U106A A119G, the “polymerase ribozyme fitness (log ratio)” value is -1.87.
In the case of C40G A46C G48U C73G C124G it was -5.04.
With G42C A66U G120A, the “polymerase ribozyme fitness (log ratio)” value was -2.6.
As for A41U G45C C114A, the figure is -4.37.
In the case of G42A C85G G93A it was -3.19; in that of C40U A43U C49A U55C G61C A84C G110C U131C, -6.76.
As for G42C C72G, the figure is -1.76.
Regarding G42C C72A, the “polymerase ribozyme fitness (log ratio)” value is -1.16.
C40U G42A C114U: the “polymerase ribozyme fitness (log ratio)” value is -1.92.
As to C40G G48U C82A, the “polymerase ribozyme fitness (log ratio)” value was -2.43.
As for C40U G45U G48U C82G A84G G120A, the figure is -2.88; as for A41G G61A, -0.141.
As for C40U G47A U109A C114U, the figure is -6.24; as for G42A A121U, 0.623.
As for A41G U112C, the figure is 0.756; as for C40U G42C G63U C85U U130A, -5.03.
Regarding C40G G57A A84C U112A G122A, the “polymerase ribozyme fitness (log ratio)” value is -3.59.
As for G42A G71A, the figure is -3.35; as for C40U G60A G120U, -0.0652; as for G42A C62G G69C C99A A111G C115U U129C, -6.83.
In the case of C40U G61U A119U G122U it was -0.621; in that of C40G A41U G45U, -5.41.
In the case of C40U C99U it was -3.93; in that of C40U C99A, -4.45; in that of G42C C82U, -1.49.
Take G42A C80U: the “polymerase ribozyme fitness (log ratio)” value is -2.64.
As for G42A U54G A103G U109A G117C, the figure is -6.58.
Take C40U C62U G135U: the “polymerase ribozyme fitness (log ratio)” value was -1.68.
Take C40U G45C C49U G63U A83U: the “polymerase ribozyme fitness (log ratio)” value is -5.92.
In the case of G42A G47A it was -2.34.
In the case of A41U U81A A121C it was -0.475; in that of A41G A50U, -1.71.
In the case of C40U U92C G110A G117C it was -6.39.
For the variant A41U A90G, the “polymerase ribozyme fitness (log ratio)” value is -0.36.
Turning to A41C A90C C123G G128C, the “polymerase ribozyme fitness (log ratio)” value was -2.07.
As for G42A U55C A95C U109A, the figure is -6.59; as for G42A C56A U96G, -2.79.
For G42A U54A C72G C86U G110A C124G, the “polymerase ribozyme fitness (log ratio)” value is -4.88.
As for G42A C72U, the figure is -2.31.
As for G42C C49U G128A, the figure is -5.33.
As for A41G G45A A50C C123U, the figure is -0.694; as for C40U G44A A121U, 0.301.
As for C40U A46U C88U, the “polymerase ribozyme fitness (log ratio)” value is -2.
As to A41C G42U C104U C114A, the “polymerase ribozyme fitness (log ratio)” value was -3.04.
As for G42C C88U U106A A121C U125A, the figure is -1.81; as for C40U C114U, -2.55; as for C40U C80U C86U A91C U112G, -3.87.
For C40U G60A, the “polymerase ribozyme fitness (log ratio)” value is -0.683.
In the case of C40U C56U A91C C97U C115U it was -3.89; in that of C40G C82U U106A, -1.73.
As for C40G U92A, the “polymerase ribozyme fitness (log ratio)” value is -3.01.
As for C40U C80A A84U, the figure is -4.52.
In the case of G42A G77A it was -2.61; in that of C40G C62U C72A A83G, -3.49.
As for A41G G44A C123U, the figure is 0.224.
With A41U G63A U78A A83U, the “polymerase ribozyme fitness (log ratio)” value is -4.53.
As for A41U C82G, the figure is -2.37; as for C40U C53U C70U C72U C97U, -1.36; as for A41C C56G C85U C102U, -5.51.
As for C40G G58C G60U C101U U126C, the figure is -2.69.
In the case of A41G A95G C114U it was -2.64; in that of A41U C104U C124U, 0.576; in that of A41G A43G, -1.45.
As for C40G C56U G77A, the “polymerase ribozyme fitness (log ratio)” value is -0.862.
Consider A41C G52U C72G U96A, for which the “polymerase ribozyme fitness (log ratio)” value is -4.71.
In the case of G42C C49A G69U A90U U109G G128U it was -6.14; in that of A41C C73G C85A A118U, -3.17; in that of G42A G110A, -2.55.
In the case of G42C G52U it was -2.21; in that of A41C U55A C102U, -3.43.
In the case of C40U A50C C76G G77C C80U U131G, the “polymerase ribozyme fitness (log ratio)” value was -4.6.
In the case of A41U G63C A95C it was -3.24.
As for C40G C49A C64U A119U U126A, the figure is -3.13; as for C40U G77A, -1.17; as for C40U C73G C123G U132A, 0.0747.
For the variant G42C G44U A74C C99A C123G, the “polymerase ribozyme fitness (log ratio)” value was -6.31.
As for A41U C72G G117C, the figure is -5.06; as for A41U G61U, -0.703; as for G42C G44U G63U C123A G128C, -3.33.
In the case of G42A C49G it was -1.71.
For G42C A50C A105G, the “polymerase ribozyme fitness (log ratio)” value was -5.66.
In the case of C40U U78C U132A it was -1.65.
In the case of A41C U112A it was 0.299.
In the case of A41U C76A U81A it was -1.77.
On to G42C C115U G120U U129G, for which the “polymerase ribozyme fitness (log ratio)” value is -4.74.
As for A41G C99U C124A, the figure is -2.72; as for A41C C53U G122A, -2.04.
As for C40G A91C C98U, the figure is -5.6; as for C40G C56A, -1.63.
Consider G42C C56G C72G C88G C114A, for which the “polymerase ribozyme fitness (log ratio)” value was -7.1.
In the case of A41G U106A it was -0.451; in that of G42A C53U, -2.41; in that of G42A C53G, -2.5.
As for C40U A43G G61A C97U, the figure is -3.06; as for C40G U67C C70U U116C U133C, -5.53.
For G42A G45U, the “polymerase ribozyme fitness (log ratio)” value was -2.62.
As for A41G G57A U106C, the figure is -1.93; as for C40G G77A C97U, -4.09; as for A41C G69C A83G, -3.72.
In the case of A41U U54C C124U it was 1; in that of C40G C53U, -0.175.
In the case of A41U C82U G113C it was -2.61.
